Reference: the supplement of paper PMC6757056
± gives the standard deviation of the averaged measurements.

B1: library; a variant is named by its letters at N, in order (parent)
chain: GCUGUCACCGAGAAACUGUGAAGUAUAUCUUAAACCUGGGCACUUAAAAGAUAUAUGGAGUUAGUAGUGCAACCUGCUCGGUCUGAUGAGUCCNNNNNNGGACGAAACAGC

What was measured:
cyclic di-GMP [1] = variants of: B1; experiment: normalized RNA/DNA level without ligand (relative to sTRSVctl = 100) (log10 (% of sTRSVctl)); HEK293T; ligand: cyclic di-GMP (c-di-GMP-II aptamer); higher = less ribozyme self-cleavage, higher mRNA level; conditions: reporter: mCherry (pCS4076), ligand present: no
Outline: (§1)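 Total RNA, extracted with EDTA 72 h after HEK293T cells were transfected with 4 µg per 6-well well of reporter-linked ribozyme switch library plasmids, was reverse-transcribed, amplified, barcoded and sequenced. Ligand, if used, was added 1 h before transfection. RNA level was derived from RNA reads divided by DNA reads and normalized to a spiked-in non-cleaving sequence or to the top sequences. This was multiplied by 100 and log10-transformed, with the top set of 25 sequences and a ≥100 DNA read minimum.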

cyclic di-GMP [2] = variants of: B1; experiment: normalized RNA/DNA level with ligand (relative to sTRSVctl = 100) (log10 (% of sTRSVctl)); HEK293T; ligand: cyclic di-GMP (c-di-GMP-II aptamer); ligand concentration (+) RNA-Seq: 1 mM; higher = less ribozyme self-cleavage, higher mRNA level; conditions: reporter: mCherry (pCS4076), ligand present: yes
Outline: as §1

Variant	normalized RNA/DNA level without ligand (log10) (cyclic di-GMP [1])	normalized RNA/DNA level with ligand (log10) (cyclic di-GMP [2])
GAUCAG	1.8 ± 0.054	1.9 ± 0.13
GAUCAC	1.727 ± 0.016	1.84 ± 0.085
ACACAU	1.46 ± 0.06	1.67 ± 0.092
ACACAC	1.633 ± 0.0097	1.81 ± 0.09
ACACAA	1.41 ± 0.056	1.66 ± 0.16
GAUAGU	1.62 ± 0.045	1.78 ± 0.1
GAUGCC	1.772 ± 0.014	1.84 ± 0.1
GAUGCU	1.73 ± 0.033	1.85 ± 0.12
GAUGCG	1.82 ± 0.063	1.89 ± 0.13
GAUGUC	1.7082 ± 0.001	1.87 ± 0.12
GAUGUG	1.71 ± 0.032	1.8 ± 0.1
GAUGUU	1.62 ± 0.037	1.78 ± 0.086
GCAAUU	1.48 ± 0.086	1.69 ± 0.1
GAUGAG	1.55 ± 0.067	1.71 ± 0.059
GAUGAA	1.45 ± 0.1	1.65 ± 0.067
GAUGAC	1.65 ± 0.019	1.82 ± 0.12
GAUGAU	1.56 ± 0.064	1.75 ± 0.099
CCAAUC	1.55 ± 0.1	1.71 ± 0.1
CCAAUU	1.58 ± 0.06	1.72 ± 0.086
UCAACA	1.708 ± 0.0058	1.81 ± 0.096
UCAACC	1.78 ± 0.044	1.9 ± 0.067
UCAACU	1.707 ± 0.0018	1.86 ± 0.069
UCAACG	1.77 ± 0.024	1.89 ± 0.096
AAUUAG	1.6 ± 0.029	1.76 ± 0.11

Variant	normalized RNA/DNA level without ligand (log10) (cyclic di-GMP [1])	normalized RNA/DNA level with ligand (log10) (cyclic di-GMP [2])
AAUUAU	1.67 ± 0.03	1.82 ± 0.1
AAUUAC	1.72 ± 0.068	1.83 ± 0.099
CAUCUA	1.4 ± 0.058	1.58 ± 0.066
CAUCUG	1.76 ± 0.073	1.88 ± 0.13
CAUCUU	1.56 ± 0.04	1.75 ± 0.1
ACAAAC	1.55 ± 0.084	1.72 ± 0.091
ACAAAG	1.4 ± 0.073	1.6 ± 0.06
AAUGGU	1.62 ± 0.048	1.76 ± 0.1
GCAAGA	1.33 ± 0.12	1.54 ± 0.1
GCAAGG	1.41 ± 0.14	1.57 ± 0.11
GCAAGU	1.39 ± 0.16	1.64 ± 0.082
CCACAA	1.51 ± 0.032	1.7 ± 0.11
CCACAG	1.54 ± 0.028	1.75 ± 0.18
CCACAC	1.65 ± 0.037	1.79 ± 0.073
UCAAGG	1.8 ± 0.067	1.89 ± 0.12
UCAAGA	1.52 ± 0.0098	1.74 ± 0.098
UCAAGC	1.63 ± 0.031	1.76 ± 0.1
UCAAGU	1.52 ± 0.048	1.73 ± 0.1
ACAAGG	1.33 ± 0.17	1.54 ± 0.098
CAUCCU	1.6 ± 0.03	1.77 ± 0.1
CAUCCG	1.82 ± 0.035	1.88 ± 0.09
UCACAA	1.547 ± 0.011	1.72 ± 0.087
UCACAC	1.7 ± 0.0024	1.81 ± 0.13
UCACAU	1.58 ± 0.048	1.78 ± 0.087

Variant	normalized RNA/DNA level without ligand (log10) (cyclic di-GMP [1])	normalized RNA/DNA level with ligand (log10) (cyclic di-GMP [2])
UCACAG	1.667 ± 0.0019	1.83 ± 0.083
UAUUCG	1.756 ± 0.0047	1.87 ± 0.13
UAUUCC	1.77 ± 0.029	1.88 ± 0.12
UAUUCA	1.8 ± 0.032	1.88 ± 0.053
GAUUGU	1.65 ± 0.037	1.82 ± 0.09
GAUUGC	1.685 ± 0.0072	1.84 ± 0.12
AAUCCA	1.65 ± 0.025	1.79 ± 0.088
AAUCCU	1.73 ± 0.073	1.86 ± 0.11
AAUCCC	1.77 ± 0.032	1.86 ± 0.087
AAUCCG	1.83 ± 0.037	1.93 ± 0.028
AAUGUA	1.525 ± 0.01	1.64 ± 0.16
AAUGUC	1.68 ± 0.03	1.84 ± 0.11
CAUGUU	1.72 ± 0.043	1.88 ± 0.085
CAUGUG	1.71 ± 0.022	1.85 ± 0.092
CAUGUC	1.72 ± 0.035	1.82 ± 0.088
CAUGUA	1.44 ± 0.081	1.65 ± 0.072
UAUCUA	1.683 ± 0.0069	1.81 ± 0.097
UAUCUC	1.81 ± 0.039	1.9 ± 0.1
UAUCUG	1.725 ± 0.011	1.87 ± 0.089
UAUCUU	1.72 ± 0.054	1.88 ± 0.088
UAUCGA	1.609 ± 0.0048	1.79 ± 0.12
UAUCGG	1.743 ± 0.0093	1.84 ± 0.11
UAUCGC	1.76 ± 0.019	1.83 ± 0.15
UAUCGU	1.67 ± 0.02	1.79 ± 0.095

Variant	normalized RNA/DNA level without ligand (log10) (cyclic di-GMP [1])	normalized RNA/DNA level with ligand (log10) (cyclic di-GMP [2])
CCACCG	1.74 ± 0.078	1.89 ± 0.14
CCACCA	1.7068 ± 0.0011	1.82 ± 0.11
CCACCC	1.798 ± 0.016	1.87 ± 0.097
CCAAAG	1.41 ± 0.056	1.61 ± 0.1
CCAAAA	1.35 ± 0.091	1.62 ± 0.079
UCACCG	1.75 ± 0.024	1.89 ± 0.12
UCACCU	1.7414 ± 0.00048	1.89 ± 0.12
UCACCC	1.83 ± 0.032	1.88 ± 0.096
CCAACA	1.53 ± 0.029	1.72 ± 0.13
CCAACG	1.71 ± 0.049	1.85 ± 0.1
CCAACU	1.56 ± 0.0039	1.75 ± 0.15
GAUCUG	1.708 ± 0.016	1.84 ± 0.07
GAUCUA	1.67 ± 0.032	1.81 ± 0.097
GAUCUC	1.75 ± 0.02	1.89 ± 0.15
GAUCUU	1.673 ± 0.0037	1.8 ± 0.091
GAUUCU	1.748 ± 0.014	1.86 ± 0.12
GAUUCG	1.7482 ± 0.0012	1.88 ± 0.06
GAUUCC	1.8 ± 0.097	1.87 ± 0.14
GAUUCA	1.72 ± 0.021	1.85 ± 0.064
UAUGUG	1.71 ± 0.047	1.86 ± 0.13
UAUGUU	1.65 ± 0.008	1.79 ± 0.15
UAUGUC	1.73 ± 0.034	1.85 ± 0.099
ACACCU	1.63 ± 0.031	1.81 ± 0.078
ACACCA	1.59 ± 0.029	1.76 ± 0.11

Variant	normalized RNA/DNA level without ligand (log10) (cyclic di-GMP [1])	normalized RNA/DNA level with ligand (log10) (cyclic di-GMP [2])
ACACCC	1.73 ± 0.012	1.86 ± 0.069
CCAAGC	1.59 ± 0.059	1.76 ± 0.13
CCAAGG	1.688 ± 0.013	1.8 ± 0.1
GCACCC	1.66 ± 0.027	1.84 ± 0.075
GCACCU	1.6643 ± 0.00076	1.85 ± 0.14
GCACCG	1.72 ± 0.037	1.86 ± 0.11
GCACCA	1.586 ± 0.0036	1.75 ± 0.11
UAUAUA	1.68 ± 0.076	1.86 ± 0.11
UAUAUG	1.71 ± 0.044	1.84 ± 0.12
UAUAUU	1.68 ± 0.043	1.86 ± 0.12
CCACGA	1.6 ± 0.04	1.74 ± 0.086
CCACGC	1.66 ± 0.022	1.83 ± 0.12
UAUUAG	1.73 ± 0.042	1.87 ± 0.068
UAUUAU	1.682 ± 0.011	1.82 ± 0.14
CAUGAU	1.57 ± 0.027	1.73 ± 0.13
CAUGAG	1.714 ± 0.012	1.84 ± 0.074
AAUUCC	1.79 ± 0.028	1.88 ± 0.14
AAUUCG	1.6472 ± 0.0012	1.8 ± 0.12
AAUUCA	1.62 ± 0.078	1.8 ± 0.12
AAUUCU	1.769 ± 0.0077	1.9 ± 0.092
